Results taken from the supplement of paper PMC9170038.

System: MS2 coat protein
Test: apparent KD of MS2 coat protein; higher = weaker reporter binding
Conditions: Eterna round: R107
Outline: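 The designed RNA switches were transcribed on-chip from Illumina sequencing clusters. In 100 mM Tris-HCl pH 7.5, 80 mM KCl and 4 mM MgCl2, without or with constant ligand, they were titrated with SNAP-549-labelled MS2 coat protein from 0.7 or 1.5 nM to 3 µM in twofold steps. Apparent KD is the per-design median of normalised cluster binding-curve fits.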

[1] = input ligand: theophylline 20 uM
[2] = input ligand: tryptophan 2.4 mM
[3] = input ligand: theophylline 2 mM

Sequence	apparent KD of MS2 coat protein (input ligand: arginine 13.2 mM) [nM]	apparent KD of MS2 coat protein [1] [nM]	apparent KD of MS2 coat protein [2] [nM]	apparent KD of MS2 coat protein (input ligand: none) [nM]	apparent KD of MS2 coat protein [3] [nM]
AUGGCGUUGGUGUAGCUGUGAAAUGGCGAUACCAGCGUGGAAACACGCCCUUGGCAGCGCCAAAACAUGAGGAUCACCCAUGUUA [Hradec]	16.6	45.1	18.1	–	–
ACCCAUAAUUGGGCGGGUGGAUUGAGUGAUACCAGUCGUAUACAUGACCCUUGGCAGCACCGACAUGAGGAUCACCCAUGUGCCA [Same State Theophylline A GF23]	25.9	38.4	46	–	–
UACAGUACAACAGAUACCAGACAGUACUCUAGAUUGCAACAUGAGGAUCACCCAUGUAUAGUCCCUUGGCAGCUGUAAUGGGUGA [Theo B SS s1]	142	195	77.2	–	–
CCUUUUAUUAAUGAUACCAGCGUAUUAAGCAUCACCUUGGACAUGAGGAUCACCCAUGUACGCCCUUGGCAGCAUACCACUGGGU [theeternabot_exclusion_MS2_Theo_B_5]	35.7	52.2	34.7	–	–
CUUCUGAAAGCAAUGGGAUCUGUUAUUGAUACCAGCAUCUGAUUUUGCCCUUGGCAGCAAGAAACAUGAGGAUCACCCAUGUGGC [theeternabot_exclusion_MS2_Theo_A_19]	21.4	23.1	21	–	–
UUGUGGCGCUCGGCCGCCACUCCGACAUGAGGAUCACCCAUGUUCUACAUGAGGAUCACCCAUGUGAGGACCGGGAGACACAACC [Exclusion Tryptophan B GF12]	137	102	165	126	134
UUCAGCUAGUCGGCCGCCACUACUUGAGGAUCACCCAAGUAAUCCUAACACUGCUUCGGCAGUGGUAGGACCGGGACUAGCUGAG	8.78	12	15.1	10.9	11.5
GGCACAUAGUCGGCCGCCACUAGUGGGAAAUGGGAGAACAUGAGGAUCACCCAUGUAUUAUAGCCUAGGACCGGGACUAUGUGCC [Mammoth]	145	196	–	–	259
AAUAAUAAGGCGGCCGCCACUAAACAUGAGGAUCACCCAUGUCUCGAGCGCUUGCGUUUGGGAAGUAGGACCGGGCCAAUAAUAA [Exclusion - Tryptophan B (Freestyle 5)]	14.2	16.4	14.2	14.5	18.1
ACAUGAGGAUCACCCAUGUAAUUGCCGGAAGGAGCGUCAUUAAGGACAGGUAGGUCGCUGGUAGGGUCGUCGGUUACGGCGGCCA [SSArg A #10]	13.3	16.8	13.7	11.1	13
ACAUGAGGAUCACCCAUGUGAUGGCGCGAUACCAGCUGAUCCCGUGGCCCUUGGCAGCGUCCGGUGUGGUCCGGCGGGUGGGACG [khkmullin]	91.4	31.7	24.2	20.8	31
ACAUGAGGAUCACCCAUGUAGUGGCACGAUACCAGCUGAUCCCGUGGCCCUUGGCAGCGUCCGGUGUGGUGCGCCGGGAUGGAGC [ZSZMULLIN]	21.8	50.8	35.6	28.4	40.7
ACAUGAGGAUCACCCAUGUUCCUCAUUGAUACCAGUGAAUUUAGACGCCCUUGGCAGCGAGUUUUUUUAUAAGAUUUUUUUUUUU [6.I]	239	839	916	–	–
AGUGUUAUAACUGAUACCAGACUUUUGCUUAUACAUGAGGAUCACCCAUGUAAAAUGGUUGUCCCUUGGCAGCAGAAAAUACACA [JR_SSTheophyB_Sub007]	81.6	104	134	–	–
UAUAAUAACUCGGCCGCCACUGGCACAUGAGGAUCACCCAUGUCUAUAUAUAAUAUAUAGUUGCACAGGACCGGGAGAUAUAUAU [Exclusion - Tryptophan B]	10.5	12.5	–	–	10.5
UGUAUGGACUGAAGGAGCGCCUCAAAUAACAUGAGGAUCACCCAUGUGGACAAAGUCCUUGGGCAGGUAGGUCGCAGUCCAUACU [ArgBX 5 #StaticStem #MS2Late]	49.1	82.9	82.2	72.4	92.3
AUGGUAGGACAGCACAUAUAAGCUUGUGAUACCAGCUAGAAAACUAGCCCUUGGCAGCACAUUACAUGAGGAUCACCCAUGUCCC [EThA NP+V+V2 #1]	44.1	68.6	50	–	–
AACAUGAGGAUCACCCAUGUCUGAACUGAAGGAGCGCUAAACAAGGCAGGUAGGUCGCGGAAUUUUGUGUGCAUAUGCAUAUGGG [9.J]	22.8	35.3	24.7	24.4	29.6
GGUAACUCUACGGCCGCCACUGAACAUGAGGAUCACCCAUGUAAUGUUCAGAUUUUUUUUUUUUACAGGACCGGGUAGUGUUACC [Tryptophan B 4]	107	276	–	–	275
GGAUAGGACACGGCCGCCACUAGCUAGGAUACUAGCAACAUUUGGGUACAUGAGGAUCACCCAUGUAGGACCGGGUGUCCUAUCG	64.4	117	107	63.7	85.5

Sequence	apparent KD of MS2 coat protein (input ligand: arginine 13.2 mM) [nM]	apparent KD of MS2 coat protein [1] [nM]	apparent KD of MS2 coat protein [2] [nM]	apparent KD of MS2 coat protein (input ligand: none) [nM]	apparent KD of MS2 coat protein [3] [nM]
UAUUUGGUGCGCGAGCGCUGGAUAAUUGAUACCAGUGAAGAAGAGCGCCCUUGGCAGCGAAUCCUAACAUGAGGAUCACCCAUGU [5.R]	33.1	54.1	38.7	–	–
CUUAUACAUGAGGAUCACCCAUGUGGUGAUACCAGCCACGAUCAAGGCCCUUGGCAGCACAAAGGGAAUAAUAUGAUUACAAAAC [theeternabot_sameState_MS2_Theo_A_6]	117	566	489	–	–
AUACAUGAGGAUCACCCAUGUUAUAGUGAAGGAGCGACAUUUAGGUCAGGUAGGUCGCACUAUUGAAUUAUUAUUCUCAGUUCUU [JR_ExcArginiA_Sub019]	14.2	21.8	15.2	13.2	13.7
UGCGUACAUGAGGAUCACCCAUGUACUGAAGGAGCGGGAGGCAUCUCAGGUAGGUCGCAGACAUGAGGAUCACCCAUGUAGUGGU [Exclusion Arginine A GF 18]	16.1	44.6	26.6	26.9	38.3
ACCUGCGUUUGUUUCUUUCUGACGCAGGUUCGAGGACCGGUACGGCCGCCACUCGGACAUGAGGAUCACCCAUGUUUGAAAUGGG [#01 Exclusion Tryptophan A]	90.4	248	–	–	313
CGGACAUGAGGAUCACCCAUGUACACUGAAGGAGCGUCGAGAACGACAGGUAGGUCGCAGGUUGAGGAUGGUGAUGCUCAGGUAG [Exclusion Arginine A GF 3]	37.1	64.7	14.3	39.2	15.8
AAACAUGAGGAUCACCCAUGUGCUCCUGUCCGAGGACCGGUACGGCCGCCACUCGGUUCUCGGGAGGAUGGUCAAAGACUAUCCA [Omei Trp A SS B v10]	60.7	44.7	48.8	50.6	57.8
ACAUGAGGGAUGGAUACCAGCGACAUGAGGAUCACCCAUGUAUGAGGAUCACCCAUGUUAUGCCCUUGGCAGCCACAAACAUGAG [UUYMULLIN]	24.8	20	16.9	14.3	117
GAGCUGAUGUAGAGCGAAUAUUCGAGAGAUACCAGUACAGAAAUGUACCCUUGGCAGCUCAACUUUACAUGAGGAUCACCCAUGU [Ex Theophylline A 23]	15	15.6	14.7	–	–
CGUGUGCGUUCUGAUACCAGAGACAUGAGGAUCACCCAUGUCCGAUCGUCCUGCCUCAGACUCCCUUGGCAGCAGGUUUUGUGCU [Exclusion Theophylline B GF4]	29.5	56.7	50.2	–	–
ACAUGAGGCUCACCCAUGUGUAGUGGGUGGCGAGGACCGGUACGGCCGCCACUCGGCAACAUGAGGAUCACCCAUGUAAGGCCCU [RNA Blob]	39.6	134	35	133	148
CGUAAACAUGAGGAUCACCCAUGUGAUGAUACCAGCACGAUUAACUGCCCUUGGCAGCAUGUAUUGUACGACUUAUUGCCCAUCG [theeternabot_sameState_MS2_Theo_A_15]	15.4	23.3	13.5	–	–
GGGUACAUCGCGGCCGCCACUCAUGUAAAUGCAUGAGGAUCACCCAUGUCGAUGGAGACAUCGGAGAGGACCGGGUGAUGUACCG	108	268	193	259	313
AAUUACAUGAGGAUCACCCAUGUGGCACAACGAGGACCGGUACGGCCGCCACUCGGUGCUGUACCACAAAACAUGCACGGGAAAG [theeternabot_sameState_MS2_Trp_A_6]	33.1	81.4	30.9	31.6	39
UUUUACGCAAGUAAUUCCCGGGAACCGGAUACCAGCUCCUCCAACAGCCCUUGGCAGCCGACCACAUGAGGAUCACCCAUGUUUC [theeternabot_exclusion_MS2_Theo_A_28]	12	16.1	12.7	–	–
GAUGAUAUUGCAGAUACCAGACACAUGAGGAUCACCCAUGUGUCCUCGCCAGCGGCAUGUGUCCCUUGGCAGCUGCGAUAUCAUC [Colombia]	11.1	17.7	12.1	11.1	41.2
AAUCAUAACUGAAGGAGCGUCUAUAUUACAUGAGGAUCACCCAUGUUUAUAUGGUAUUAUAGACAGGUAGGUCGCAGAUUUUUUA [JR_SSArginiB_Sub017]	20.7	21.6	15.8	16.8	18.7
AUAUGGCGAGAUGAUACCAGACACAUGAGGAUCACCCAUGUUGAUGGUAAGUCUGCAUAUGUCCCUUGGCAGCAUAGCGACAUAU [X-TheoB-ms2@23]	8.63	11.9	8.34	–	–
GCUGCCAUACGAAGGAGCGCUGGUGUAAUGAGGCGAACAUGAGGAUCACCCAUGUGGCAGAAGCAGGUAGGUCGCGUAUGGCAGC [EAB #15]	12.9	20.6	18.3	14.2	14.9
